# In article PMC3248442 (2011):
# T1: integrin αVβ5 (Homo sapiens, UniProt P06756)
# T1 chain 1: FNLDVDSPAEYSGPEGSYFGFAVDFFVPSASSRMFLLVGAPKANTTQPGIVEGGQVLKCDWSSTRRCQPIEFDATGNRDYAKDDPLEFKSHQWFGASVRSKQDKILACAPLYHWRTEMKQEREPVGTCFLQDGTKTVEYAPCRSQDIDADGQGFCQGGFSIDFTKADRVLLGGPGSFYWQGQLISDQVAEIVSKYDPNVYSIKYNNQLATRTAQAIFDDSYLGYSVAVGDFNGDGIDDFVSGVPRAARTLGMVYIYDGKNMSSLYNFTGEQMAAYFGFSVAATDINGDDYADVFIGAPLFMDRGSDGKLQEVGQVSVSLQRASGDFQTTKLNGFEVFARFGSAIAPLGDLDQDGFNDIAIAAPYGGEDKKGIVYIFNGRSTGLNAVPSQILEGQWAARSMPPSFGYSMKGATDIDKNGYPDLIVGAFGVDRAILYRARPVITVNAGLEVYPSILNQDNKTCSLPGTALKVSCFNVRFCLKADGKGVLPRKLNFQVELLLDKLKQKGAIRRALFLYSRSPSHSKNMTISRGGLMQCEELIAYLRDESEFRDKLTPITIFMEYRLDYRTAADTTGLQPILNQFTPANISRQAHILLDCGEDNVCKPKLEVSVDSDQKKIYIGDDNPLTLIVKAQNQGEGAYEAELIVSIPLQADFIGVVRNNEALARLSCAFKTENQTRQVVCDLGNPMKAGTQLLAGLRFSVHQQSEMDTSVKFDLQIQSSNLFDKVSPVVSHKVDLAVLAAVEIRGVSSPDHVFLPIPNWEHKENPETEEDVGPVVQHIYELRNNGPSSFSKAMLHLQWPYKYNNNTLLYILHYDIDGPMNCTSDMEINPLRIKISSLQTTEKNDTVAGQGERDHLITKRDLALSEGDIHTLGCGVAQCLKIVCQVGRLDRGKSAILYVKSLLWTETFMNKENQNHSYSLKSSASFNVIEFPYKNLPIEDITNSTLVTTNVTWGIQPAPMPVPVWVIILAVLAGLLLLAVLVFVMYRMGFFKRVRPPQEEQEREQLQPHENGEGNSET
# T1 chain 2: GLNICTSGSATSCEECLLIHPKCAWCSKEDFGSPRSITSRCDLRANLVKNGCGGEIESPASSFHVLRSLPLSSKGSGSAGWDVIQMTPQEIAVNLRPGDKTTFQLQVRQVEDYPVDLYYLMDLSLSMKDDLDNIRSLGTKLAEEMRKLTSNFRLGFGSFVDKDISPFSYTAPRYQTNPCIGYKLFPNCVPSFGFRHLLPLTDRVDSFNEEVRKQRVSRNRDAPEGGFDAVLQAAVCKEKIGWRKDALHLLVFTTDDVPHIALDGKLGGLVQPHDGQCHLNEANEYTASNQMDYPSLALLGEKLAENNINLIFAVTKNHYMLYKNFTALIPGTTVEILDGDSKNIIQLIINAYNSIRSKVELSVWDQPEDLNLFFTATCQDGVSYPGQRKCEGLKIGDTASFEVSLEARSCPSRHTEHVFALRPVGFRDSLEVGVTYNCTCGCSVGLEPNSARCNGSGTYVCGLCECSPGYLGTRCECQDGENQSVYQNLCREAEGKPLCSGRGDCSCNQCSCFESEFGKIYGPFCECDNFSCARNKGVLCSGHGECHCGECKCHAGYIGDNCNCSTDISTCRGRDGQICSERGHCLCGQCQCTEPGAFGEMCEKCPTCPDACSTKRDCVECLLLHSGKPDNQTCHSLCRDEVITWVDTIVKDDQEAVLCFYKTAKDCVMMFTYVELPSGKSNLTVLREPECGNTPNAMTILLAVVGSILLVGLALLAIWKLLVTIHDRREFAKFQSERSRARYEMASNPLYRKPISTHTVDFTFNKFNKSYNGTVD
# Target: T1, integrin αVβ5
# Test: solid-phase binding assay (fluorescent immunoassay)
binder,measurement,value
PilY1 532-1163 (protein) AGDLTRYSLTTQDKATVQTKLWSAQSILDAMPNGGAGRKIMMAGSGTSGLKEFTWGSLSADQQRQLNRDPDRNDVADTKGQDRVAFLRGDRSKENSDNFRTRNSILGDIINSSPATVGKAQYLTYLAQPIEPSGNYSTFAEAQKTRAPRVYVGANDGMLHGFDTDGNETFAFIPSAVFEKLHKLTARGYQGGAHQFYVDGSPVVADAFFGGAWHTVLIGSLRAGGKGLFALDVTDPANIKLLWEIGVDQEPDLGYSFPKPTVARLHNGKWAVVTGNGYSSLNDKAALLIIDLETGAITRKLEVTGRTGVPNGLSSPRLADNNSDGVADYAYAGDLQGNLWRFDLIAGKVNQDDPFSRANDGPAVASSFRVSFGGQPLYSAVDSAGAAQAITAAPSLVRHPTRKGYIVIFGTGKYFENADARADTSRAQTLYGIWDQQTKGEAAGSTPRLTRGNLQQQTLDLQADSTFASTARTIRIASQNPVNWLNNDGSTKQSGWYLDFMVNGTLKGEMLIEDMIAIGQVVLLQTITPNDDPCADGASNWTYGLDPYTGGRTSFTVFDLARQGVVDSKSDYSYNKQNVAVSGTEQKGLGGLTLSTNEQGNPEVCSSGECLTVNPGPNTRGRQNWRPIEGKN,Kd,164 nM
